Results from the DeepSol protein solubility set.

Assay: soluble on expression in E. coli; label from the status in PepcDB or PDB records

Sequence | soluble on expression in E. coli
MAHHHHHHMDAAIAQLRGCLEELLTYYPHVLRNVFEVEPSPLAAPKLSQQRPRDSSALADVIEDFLTELTRVLSIGLCDDDLGLWSVLELLECVPARMQAVAEATATAPETAALSKHGAQEPLQQLQRFRFASQLVYLVRSAFPATAPAVRARIFLRLTLNQGCLVAALELLREWCRSELLVFYAASDRGRRNGAAGSASSVALLVQSDTDSDMWNSFVAAIAPVAGPPVAEIAAGAPKVAAQPFHLQLLVPGLDDNSAASHAYYTQVENYACGRQPTRPSALACYRAALRQHSGSARKHDRSFRAASAGEGAASSPKLSPHPAEQLVLRVESLSVDHRTASGKEVAPVSRGNVSYDSSSTLSSRPMTLEPLSFVHRERLRGAKKRRRRHPSLSTAGAVAREEDAAGSPTPEGKTDNTTSDNTGSVAEAALHTSTVVTEAKECQGAPEAGEKAAPPYRDDYASRDDDPQVAPTVGETGAAQAASRALDTVSTDSPASAPHCLSPALRAAESPNRTLDSSSAPALSPELRNLQHRLWLCWLAVVTHAESEERIRITVRDVDANIS | not soluble
HMARSLYPLGVSRSLPPYRRTFNHQTFIFVKSILRLGVSMEEEEFDIREALANGEHLEKILIMAKYDESVLKKLIELLDDDLWTVVKNAISIIMVIAKTREDLYEPMLKKLFSLLKKSEAIPLTQEIAKAFGQMAKEKPELVKSMIPVLFANYRIGDEKTKINVSYALEEIAKANPMLMASIVRDFMSMLSSKNREDKLTALNFIEAMGENSFKYVNPFLPRIINLLHDGDEIVRASAVEALVHLATLNDKLRKVVIKRLEELNDTSSLVNKTVKEGISRLLLLEGHSSS | soluble
MGSDKIHHHHHHMRFPMMELDEKIYRFFENRGRDVTVEYLNLGLGYTAVTTSDGGIGIAYTCFGAKESCSFMNSYYDFEGRPAVELLEKIKSTHPLERTMALALVNALNYEYALSLPEDKENRALFESFGIGEKTRVAMVGYFAPIAGMLGKMGALLEVIDISKKIGHQADFYDRLENWAQVAFITSTSILNSTTEDILRHAGKGVKTVMLGPSTPMIGEVFSHLPVHMLAGTVPLEKEKVLKAIRHGFGTREIQRFSRKSYLALF | not soluble
SLKINQEEDTVSSEKNKLCDNNNNNNMVHTRHIYNVCELNKCLRENKLIPYNNIYKMKHLYLNILDTFDENILKHVNKAHLFIDSVIQKKKNILIHSMAGISRCSSIILSYVSKKNKKGIEYNFNLLKSKYPFAHPNENFYRQLLLYEKMNYTLDGCTDYHNIYK | not soluble
MRPPSELLDIISKLAELDPLVRKGAVRQLSSKQEELSDNELNTYVIERLISGCASARAAVRLGYTTALGTILMTKAGESWELDKILAVADKKMDLAEKTVGTGHAIGHYLILVTYCQTRKLKEAEATKIVEHSKKIRDFAPSLAFSQINLLCSLATKTKESVFQKSVSPAIEMNLEGLSSQFTPENVYLALRLRNSHSTVVAKYAKFVKKDGSIQFSDDQYPKILAALKRCDFATVQVFLPLLIKASVESSGFDKMYLKVLEPWALSSNETKVFDRILTIVTQFFDFGGDVKSIVVVFTKEVLNRMETATRGKGQFRLMSKKVDDFAAFIQSKLSELRDEEAYTALKELEKCGNVDKACGTGLTTALLSNLGKKQISVWIKENLSNQDEVRKIVSAFSNWDEKSRITVLSALLSQKATETSQSVVTSIIDSLFYVKTRAGEFASIQISEKNEEVLRQLVVAVQGEEEVKKAEKSIGKSKLRKKSLQILWYVTRLWSRIAASSVDSAAYDSDSSEILAIAKNEADGNNSLVFVDLLLSILSREQKFHRTPTAFAFVHAIPTLESKDLCHIVETAMMSEAELAGNDDEDMEDEEGMPFDESEIPSGNGDDEASDSDDDDEEEDDDEGNEAVDQELLDKLNAALGDAAPRDSSSDVEMDDLDDEAMQKMDERLAAAFKAIAPKAGKDKKRSAKSVEALKMKIADLLLIAISSKELAEQSKIKLVVPLLKWAKVDAKTHDKVAQKVLELVNIVVKMKFTDVSEKDALQLLKQVLDEAQTTTNILIIDTVARCVTFVLKISSRDGKSMSAGVKTEFQSLFENYLKNVEGKVPSNFVIQPIADLPLLFVDQLGMLIDAGFDEENRIFKRTEILGAIAMIFTKQVLQETNIKGAIIKKIGKLAAAYFQKVVDSDKSELKPRLFGTVLQLILKVTVCIQNDEKHVDALRESLEYVIQKMFEGEVFIQLKKINPTCHHIIGKSIAGAFTSIKKSLDIEN | not soluble
ELKAKILHIPGDELINHNNQILEEYDHSQNTLIVGPNHVNSNIIHALTASEDTLFYKHNGIMPKALLRAMLQDITNSNQSSGGSTITQQLVKNQVLSNKKTYSRKANEIILATRVENLLSKDEIIYTYLNIVPFGHDYNGANITGISSASYSLFGIPAKDLNIAQSAYLIGLLQSPYGY | not soluble
MGSDKIHHHHHHACKNKTGGPATASSELTDDALMDTVQRRTFLYFWEGAEPNSGLAPERYHVDGVYPQNDANVVTSGGSGFGIMAILAGIDRGYVTREEGLARMERIVSFLEKADRFHGAYPHWWYGDTGKVKPFGQKDNGGDLVETAFLMQGLLAVHQYYINGNEKEKALAARIDQIWKDVDWNWYRNGDQNVLYWHWSPTYGWEMDFPIHGYNECMIMYILAAASPTHGVPAAVYHDGWAQNGAIVSPHKVEGIELHLRYQGTEAGPLFWAQYSFLGLDPVGLKDEYCPSYFHEMRNLTLVNRAYCIRNPKHYKGFGPDCWGLTASYSVDGYAAHSPNEQDDKGVISPTAALSSIVYTPEYSMQVMRHLYNMGDTVFGPFGFYDAFSETDNWYPQRYLAIDQGPIAVMIENYRTGLLWKLFMSHPDVQAGLTKLGFNTNKQDVRQK | not soluble
SKKEHVLHCQFSAWYPFFRGVTIKSVILPLPQNVKDYLLDDGTLVVSGRDDPPTHSQPDSDDEAEEIQWSDDENTATLTAPEFPEFATKVQEAINSLGGSVFPKLNWSAPRDAYWIAMNSSLKCKTLSDIFLLFKSSDFITRDFTQPFIHCTDDSPDPCIEYELVLRKWCELIPGAEFRCFVKENKLIGISQRDYTQYYDHISKQKEEIRRCIQDFFKKHIQYKFLDEDFVFDIYRDSRGKVWLIDFNPFGEVTDSLLFTWEELISENNLNGDFSEVDAQEQDSPAFRCTNSEVTVQPSPYLSYRLPKDFVDLSTGEDAHKLIDFLKLKRNQQEDD | soluble
MSLNVLIVDDEANIRKTLTVFMESRGHRVKAVSNSRDACAEAEQQVFDLAFVDIRLGIESGLDLERSLLNACPWIKIVIITAYASIETAVEAMKRGASDYLAKPFTPDQLESITARLAEVCAMEMRIASLQEDLNRMHPEVYFTSRYPSMQRAIELSRQVALSDALVLLRGPSGTGKTVLARSIHNWSQRKEEPFGVVSCPSLSTELLESELFGHVKGSFPGAVRDKPGRVTLCEGGSLFLDEIGDLPLSIQAKLLRFIQDREYERIGDHQTRKADVRIIAATNTNLDLAVREGEFREDLFYRLNGIQIDLPTLAERPNDVEQLALNMLQFFAAQNLKNFDGFTEEARTALRTYSWPGNIRELRNVMERAVILGKNGQIGIELLPDSIVAKTHPVTEGHHHHHH | soluble
MGSDKIHHHHHHMLKLSVCLLTCNSARLLMEVLPPLLKVADECIVVDSGSTDETVAICQQFGLTVHHHAYKAHGAQMNYAIGLASHDWVLCMDSDEILDNDVVAAIQALKAGEEPEPTCAWRLPRYWFVLGKQVRTIYPISSPDYPVRLFNRQQARFNDRPVDDQVVGHASSVRLPGFVRHDTFYSLHEVFNKLNSYTTRLVKYQQIKPSLTRGIVSAIGAFFKWYLFSGAWRYGKVGVVTGLYATFYSFLKYFKAWYAHEDNQAPVAQKRTDP | not soluble
MYTLREPYKGYEVKVTLLPIEDIVIPPIQRDLSETLIKKLMLSIEKVGFVDPILVVEGEEGKYEVINGQHRLKAAELLGIREIPAIILPQETKDYIISLNVEKAPNLKDKAHQAYEIFMKYLKENPEMEEVELENMVEEPYFLTVGFITDRFGEKRFPAYAFEKVLKKVDEFLGLPLEEAERERENRANVLRDVREVMEEKYQELGLTNALHKEAIISKAFQSVYGKRVRKVDDDFYTVFEKIKEAIPRVSFTEEELESF | soluble
MAHHHHHHMMKEETLNSDNSSAEVSVESPSFSFNCAHFIAYNGFRETLHGHNYNVSLKVRGYVRDDGYVIDFSILKEKVKKVCNKLDHHFILPIYSDVLKFENVKNNIKIICEDNSEYSFPERDCIKLPIKHSSTEEIGQYILNQLIEEMDVSLLKSRHIHYIEISVSESPTQKAIVHKYI | soluble
MNEKIEQAIREMGFKNFTEVQSKTIPLMLQGKNVVVRAKTGSGKTAAYAIPILELGMKSLVVTPTRELTRQVASHIRDIGRYMDTKVAEVYGGMPYKAQINRVRNADIVVATPGRLLDLWSKGVIDLSSFEIVIIDEADLMFEMGFIDDIKIILAQTSNRKITGLFSATIPEEIRKVVKDFITNYEEIEACIGLANVEHKFVHVKDDWRSKVQALRENKDKGVIVFVRTRNRVAKLVRLFDNAIELRGDLPQSVRNRNIDAFREGEYDMLITTDVASRGLDIPLVEKVINFDAPQDLRTYIHRIGRTGRMGRKGEAITFILNEYWLEKEVKKVSQKA | soluble
MAHHHHHHMEANGTLVECKRGESDAVVFRFLIIDAPSPSSVPAYMKLLQRHNVMHIVRACGPTYNAEVFEKQGIVVHGWSFDDGASPTQTVIDNWLNLLEQEKNKSPPETIAVHCVSGLGRAPILVALALVEYGGMPPLDAVGYVRGRRKGAINQVQLNWLMRYKPRHQESNEGSLICARCTLM | soluble
MAEEQQNSDQSNGGNVIPTPEEVATFLHKTVEEGGWEKCWEEEITPWDQGRATPLIVHLVDTSSLPLGRALVPGCGGGHDVVAMASPERFVVGLDISESALAKANETYGSSPKAEYFSFVKEDVFTWRPTELFDLIFDYVFFCAIEPEMRPAWAKSMYELLKPDGELITLMYPITDHVGGPPYKVDVSTFEEVLVPIGFKAVSVEENPHAIPTRKGKEKLGRWKKIN | not soluble
MMKKKWYIVLTMSGYEEKVKENIEKKVEATGIKNLVGRIVIPEEVVLDATSPSERLILSPKAKLHVNNGKDVNKGDLIAEEPPIYARRSGVIVDVKNVRKIVVETIDRKYTKTYYIPESAGIEPGLRVGTKVKQGLPLSKNEEYICELDGKIVEIERMKKVVVQTPDGEQDVYYIPLDVFDRDRIKKGKEVKQGEMLAEARKFFAKVSGRVEVVDYSTRKEIRIYKTKRRKLFPGYVFVEMIMNDEAYNFVRSVPYVMGFVSSGGQPVPVKDREMRPILRLAGLEEYEEKKKPVKVELGFKVGDMVKIISGPFEDFAGVIKEIDPERQELKVNVTIFGRETPVVLHVSEVEKIE | soluble
MEFDYVICEECGKEFMDSYLMDHFDLPTCDDCRDADDKHKLITKTEAKQEYLLKDCDLEKREPPLKFIVKKNPHHSQWGDMKLYLKLQIVKRSLEVWGSQEALEEAKEVRQ | soluble
SQTREDSVYLAKLAEQAERYEEMVENMKAVASSGQELSVEERNLLSVAYKNVIGARRASWRIVSSIEQKEESKEKSEHQVELIRSYRSKIETELTKISDDILSVLDSHLIPSATTGESKVFYYKMKGDYHRYLAEFSSGDAREKATNSSLEAYKTASEIATTELPPTHPIRLGLALNFSVFYYEIQNSPDKACHLAKQAFDDAIAELDTLSEESYKDSTLIMQLLRDNLTLWTSDISESGQEDQQQQQQQQQQQQQQQQQAPAEQTQGEPTK | soluble
MFEKVIKLWRDTFPKSEHKLMSIEYVAAIEEFNEYFPGYAAMNDSNYSKLQHFFRSLHPIGCIKPFRFHYSSAFALENSLDDYLLKNAQFKRDGLAGEWAIHIFADHNDHIIEKYRMYKKKRLEKLERTFEERKKKAER | not soluble
